Here are results for ten molecules from PMC7353009, “Identification of Substrates of Cytoplasmic Peptidyl-Prolyl Cis/Trans Isomerases and Their Collective Essentiality in Escherichia Coli” (International Journal of Molecular Sciences, 2020).

Where “and” joins values, the source holds several entries; their conditions need not be identical. Identical values can stand only once.

The labels stand for the following.
B1: AhpC-derived peptide (peptide)
peptide: RATFVVDPQGI
notes: peptide from AhpC (alkyl hydroperoxide reductase subunit C), E. coli; also called AhpC peptide
B3: Hexa-His-tagged FkpB (wild type) (enzyme, E. coli, UniProt P0AEM0 1-149, looked up)
chain: MSESVQSNSAVLVHFTLKLDDGTTAESTRNNGKPALFRLGDASLSEGLEQHLLGLKVGDKTTFSLEPDAAFGVPSPDLIQYFSRREFMDAGEPEIGAIMLFTAMDGSEMPGVIREINGDSITVDFNHPLAGQTVHFDIEVLEIDPALEA
notes: FkpB, FKBP-type peptidyl-prolyl cis/trans isomerase, E. coli; minimal coding region of the fkpB gene in pET24b; also called wild-type FkpB; source: E. coli T7 express derivative lacking all six PPIs (SR21984), IPTG-induced; in lysate on Ni-NTA for co-elution; purified (Ni-NTA) for ITC; not shown: His6, C-terminal, kept
B6: RseA peptide Rse1 (peptide, UniProt P0AFX7 2-29, looked up)
peptide: QKEQLSALMDGETLDSELLNELAHNPEM
notes: peptide corresponding to amino acid 2-29 of N-RseA (N-terminal domain of the anti-sigma factor RseA), E. coli
B7: RseA peptide Rse3 (peptide)
peptide: IIEEEPVRQPATL
notes: peptide from the conserved regions of the N-terminal domain of RseA, E. coli
B9: Hexa-His-tagged PpiC (wild type) (enzyme, E. coli, UniProt P0A9L5 1-93, looked up)
chain: MAKTAAALHILVKEEKLALDLLEQIKNGADFGKLAKKHSICPSGKRGGDLGEFRQGQMVPAFDKVVFSCPVLEPTGPLHTQFGYHIIKVLYRN
notes: PpiC, parvulin peptidyl-prolyl cis/trans isomerase, E. coli; coding region of the ppiC gene in pET24b; The tag is called cleavable; also called wt PpiC; wild-type PpiC; source: E. coli T7 express derivative lacking all six PPIs (SR21984), IPTG-induced; in lysate on Ni-NTA for co-elution; purified (Ni-NTA) for ITC; not shown: His6, C-terminal, kept

In experiment [1] the target is T1, Hexa-His-tagged PpiC M57A (E. coli).
T1 chain: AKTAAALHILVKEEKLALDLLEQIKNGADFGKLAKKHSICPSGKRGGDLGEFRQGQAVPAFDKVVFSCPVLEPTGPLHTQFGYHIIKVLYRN
Kind of experiment: ITC.

Experiment [2] deals with T2, Hexa-His-tagged PpiC F81A (E. coli).
T2 chain: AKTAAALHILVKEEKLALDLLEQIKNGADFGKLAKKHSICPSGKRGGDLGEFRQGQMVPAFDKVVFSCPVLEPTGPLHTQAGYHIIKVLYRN
Kind of experiment: ITC. (ITC needs no label: the signal is the heat of the interaction.)

In experiment [3] the target is T3, Hexa-His-tagged FkpB (wild type) (E. coli, UniProt P0AEM0 1-149).
T3 chain: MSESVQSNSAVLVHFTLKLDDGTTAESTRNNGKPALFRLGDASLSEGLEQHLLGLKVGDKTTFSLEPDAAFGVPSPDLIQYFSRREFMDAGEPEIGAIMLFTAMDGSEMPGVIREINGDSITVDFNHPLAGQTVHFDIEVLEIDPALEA
Briefly: ITC.

In experiment [4] the target is B3. Briefly: ITC; Nano ITC; 200 μM peptide in the cell titrated with 2 mM protein, 25 injections of 2 μL, 20 °C, 20 mM sodium phosphate pH 7.5, 100 mM NaCl; 1:1 binding model. The following applies: both partners purified.
The target of experiment [5] is B9. Described as above. To be noted: both partners purified.
Experiment [6] concerns the target B7. The description is as above. The following applies: both partners purified.
For experiment [7], the target named is B1. The experiment is described as above. To be noted: both partners purified.
Experiment [8] has as its target B6. The description is as above. The following applies: both partners purified.

For orientation: Kd means the equilibrium constant for the complex coming apart. For B1, the Kd is 68.8 µM in experiment [1]; 77.6 µM in experiment [2]; 30.3 µM in experiment [3]; 47 µM in experiment [4]; 30 µM and 47.4 µM in experiment [5].

B2: RpoE peptide P2 (peptide)
peptide: KVASLVSRYVPSGDV
notes: peptide derived from conserved region 2 of RpoE, E. coli
Consider B2, for which, in experiment [4], the Kd came to 10.7 µM.
The term stoichiometry N denotes a count of units in the complex or per binding partner. For B3, the dH in experiment [6] was -1.48 kcal/mol; in experiment [8], -2.18 kcal/mol. For the same molecule, the entries for the “stoichiometry N” value in experiment [7] and in experiment [8] were 0.99 and 1, respectively.

B4: RpoE peptide P1 (peptide)
peptide: YLVAQGRRPPSSDVD
notes: peptide corresponding to the C-terminal end of conserved region 2.4 of RpoE, E. coli
Take B4: the Kd in experiment [4] turned out to be 38.1 µM.

B5: S2-derived peptide (peptide)
chain: TRYWNPKMKPFIFGA
modifications: This paper prints neither letters nor limits. Limits 20-34 are recalled from the SlyD/FKBP S2 peptide of the cited work (ref. 12), as are the check residues. Terminal modifications unknown.
Consider B5, for which the Kd in experiment [4] stood at 18.8 µM.
Still for that read-out and setting: then B6, with 15.1 µM; and B7, with 13 µM.

B8: RpoE peptide P3 (peptide)
peptide: FRAREAIDNKVQPLIRR
notes: peptide covering conserved region 4 of RpoE, E. coli, including R178
Molecule B8 displayed a Kd in experiment [4] of 19 µM.
Regarding B9, in experiment [7], the “stoichiometry N” value was 0.99.

B10: RpoE peptide P4 (peptide)
peptide: AAIMDCPVGTVRSRI
notes: peptide derived from conserved region 4 of RpoE, E. coli
B10 came in with a Kd in experiment [4] of 10.3 µM.
